# Results as given in CN115850461A (INST MICROBIOLOGY CAS, dated 2023).
# B1: 沙贝病毒广谱人源中和抗体74 (antibody, V domains shown)
# VH: QVQLVQSGAQLKKPGESLKISCKGSGYNFSRYWIAWVRHMPGKGLEVMGIIYPDDSDTRYSPSVRGQVTISADKSTSIVYLQWSSLKASDTGIYYCARFGAGMTGMPRYFDTTRWFDPWGQGTQVTVSS
# VL: QSVLTQPPSVSGAPGQRVTISCLGGSSNIGAGYDVHWYQHLPGAAPKLLISGNSNRPSGVPARFSGSKSGTSASLAITGLQAEDEADYYCQSYDNDLSQVFGGGTKLTVLG
# Legend:
# [1] = target: SARS-CoV-2 Prototype(PT)假病毒 S蛋白 (SARS-CoV-2 (Prototype), UniProt P0DTC2 14-1273); test: cell-based or functional assay
# GD/1/2019 假病毒 S蛋白 = GD/1/2019 假病毒 S蛋白 (sarbecovirus GD/1/2019); test: cell-based or functional assay
# WIV1 假病毒 S蛋白 = WIV1 假病毒 S蛋白 (sarbecovirus WIV1); test: cell-based or functional assay
# SARS-CoV 假病毒 S蛋白 = SARS-CoV 假病毒 S蛋白 (SARS-CoV, UniProt P59594 14-1255); test: cell-based or functional assay
# RaTG13 假病毒 S蛋白 = RaTG13 假病毒 S蛋白 (sarbecovirus RaTG13); test: cell-based or functional assay
# [2] = target: T1, SARS-CoV-2 Prototype株(PT)RBD蛋白 (SARS-CoV-2 (Prototype), UniProt P0DTC2 319-541); test: SPR, Biacore 8K; 74 captured on protein A chip, RBD as analyte
# T1 construct: domain: RBD
# SARS-CoV RBD蛋白 = SARS-CoV RBD蛋白 (SARS-CoV, UniProt P59594 306-527); test: as above
binder,measurement,setting,value
B1,"IC50, 假病毒中和",[1],0.95 µg/mL
same,"IC50, 假病毒中和",GD/1/2019 假病毒 S蛋白,0.0028 µg/mL
same,"IC50, 假病毒中和",WIV1 假病毒 S蛋白,0.14 µg/mL
same,"IC50, 假病毒中和",SARS-CoV 假病毒 S蛋白,0.041 µg/mL
same,"IC50, 假病毒中和",RaTG13 假病毒 S蛋白,> 100 µg/mL
same,Kd,[2],< 0.0156 nM
same,koff,[2],9.52e-08 s⁻¹
same,kon,[2],640000 M⁻¹ s⁻¹
same,Kd,SARS-CoV RBD蛋白,< 0.00606 nM
same,koff,SARS-CoV RBD蛋白,6.47e-06 s⁻¹
same,kon,SARS-CoV RBD蛋白,1.65e+06 M⁻¹ s⁻¹
